The nature of this data set: label from the status in PepcDB records.
For the sequence “MTRFIHTADWQIGRQYGQFDSDDAAVLAEARLEPVARIAAQASELAVDAVLVAGDVFDTQSVSDRTIRRLFGAMQAYEGPWVLIAGNHDAALADSVWSRARRLECIGTNVHVPQDTAAVELPLAGLAVLAAPLTQRHTYDDVTAAFDTMDSAAGLVRVGLAHGSVADRLPEQADAANPIAPDRAQRARLDYLALGDWHGCLRIDERTWYAGTPEPDRFRGNAPGYALLVEVAAPGAPPQVRQLEVGKYRWSHWVERLDLASDAEDLGHRLAGLQAGDVLRLELHGALSLARRWDALRRDVERAAARVRALVADSAGLVLEPDAADLAALSVDGYVGAAAARLQAMQGDGAQAAAARVALRLLLQYQRELAEGAS”, the protein production entry was “failed”.

Take “MTRIAIALAQDFADWEPALLAAAARSYLGVEIVHATPDGMPVTSMGGLKVTPDTSYDALDPVDIDALVIPGGLSWEKGTAADLGGLVKRFRDRDRLVAGICAAASALGGTGVLNDVAHTGNALASHKAYPAYRGEAHYRDQPRAVSDGGVVTAAGSAPVSFAVEILKSLGLFGPEAEAELQIFAAEHR”: the protein production entry is listed as “not failed”.

For the sequence “MTRIAIVGAGPAGLSLAYFLKGSRKVEATVYESMPEPGLKPCAWGLITGIENIIPIPNETIISEIRGFRIYLDNKLVFDIRTDNKLGYIIDKPLFLKRLSQEVNVEFNSKVVKKDDKYYINDKSLDHDKVIFATGHYSVSKSMSIPAIQYITDYEIDKEVVEFYFYSGFLGYAWVFPDREGSKIGIGGYAEVPELKERLKQILKGRIRTFHGARVTDYGVIEDRLDGNYTGEALGTVYAITGEGIRPSIISSKILADSILNRKDFKKEFKKSKLYWSLNWHAKIIKMTKENDPGTARLSKALLNNDPQLILKFAIGEFNRVDLIKIFGRSLILEHHHHHH”, the protein production entry was “not failed”.

With “MTRLNELWELYFQTLDKSTSWTFTKESFYNRYLKEPLGKKKLDSIQEHHIMAIIRHLQAEGMATRTVNTTLEILRPLFDFAIKNKALRDNPTRFIVLKKDNLEHHHHHH”, the protein production result is reported as “failed”.

“MTRMKMFKLWMVVMLLGLLPIVSEAQEEINNAINVQLEYLKKYPKDKEALRKVSFLYLNKADYDQAIFYGRQLFELGYNERDYNGAVIYSHICLGQAHMMKGNVKEAYSHLGQARLIGESNKNDSALCSVYNGLGLYASNVQKDYYRSLTYFFKGVEAARRCHYDRLYSILLSNIAGIYYLKNDSTGLKYALECYELGHERKDPYLIYSGSTNTAYMYYLKSDYNTALKYIQEAEFTMVQNDFYDQSNVYNLYGYILHKLNKDDEALVFFRKALDLKEQGNISSVMNSYLGYAEILMEHHQYDRAVRMLKAGIELSYQQANAIYRSDLLKALSRCYEEDGMLVEALKYHKLYQLETDSLYNAEKERAVGEIRAKYDMERQENEIKQNRLELLEKENKMQLLIAGFICIFIAASLLYYLYYRKNKLYLTIVKQNQDAIRREQQLQNKIDEQFAEIGRQSALLQEYLTDSTKTSLPQPEKYASSSLTDEKKQDLFLRLETLLWEEKVFTDNLLTKEKVAEMLGTNRTYLSQIINEQTKQTFTQFVNGFRTKEAVRLLSDPDNQTPLKAISAELGFNSMTTFYSQFQAATGMTPAQYRNKVQELHKNR”: the protein production entry is listed as “failed”.

Turning to “MTRPIGIYEKATPKHFNWLERLQFAKELGFDFVELSIDESDERLARLEWSKEERLELVKAIFETGVRVPTITFSGHRRFPMGSNNPEKEARAMDMMKKCIVFAQDIGIRNIQLAGYDVYYEEKSPETRARFIKNLRQACTWAEEAQVILSIEIMDDPFMNSIEKYLAVEKEIDSPYLFVYPDTGNVSAWHNDLWSEFYNGHRSIAALHIKDTYAVTETSKGQFRDVPFGQGCVDWEEMFAVIKKTNYNGPFLIEMWSENCETVEETRAAIKEAQDFLYPLMEKTGVK”, the protein production result was “failed”.

For “MTRSERKPLLMLMVNMFVVMMGIGLVIPILPYYIEAFGASSVELGLLIAIFSFMQFLLAPFWGRLSDKVGRKPLIAVGMFGFAVAEFIFAFATQFWMLFVSRILAGAFGSAVMPAAMAYVSDRTSEEKRGHGMGLLGASMALGIVVGPGIGGWLAEFSLATPFLFAGFAASFAAIFSLLWLPESLPLEKRKTEVEPVNQFVQMWQAVRSPIGFLLFLVFGLSFGLANFQTIFGIFALHRFHYNPSEVGFIMVLTGIVGAIAQGSLVGRLTERYGEEKVVLGSLSLSGIGFLIMMLAFNYWTVIATTCLFFLGNSILRPAVQSFLSKMAGDQQGMIMGLNNSILSLGNVVGALLAGLLFEWNMFLPYTVGAFVMFASLGATFRWLSKRASQGKHPEKSSP”, the protein production entry is “failed”.

Consider “MTSAAEITAAVRQLYNTYPFPPEPLLDEPPPGYNWRWSWPAAYSFCTGRYPSQLDVAILDAGCGTGVGTEYLAHLNPQAKITALDLSEAALAIACERCRRSGATNVQFHHLSLEEVAQLGQTFQMINCVGVLHHLPEPQRGIQALADVLAPGGIVHIFVYGEYGRWEIKLMQQAIALLQGSDRHNYREGVAIGRQLFAALPENNRLKKREQERWSLENQRDECFADMYVHPQEIDYTIASLFELIRASGLEFIGFSNPQVWQLERLLGSQPELLQRAQQLDPIQQYQLIECLDPEAMTHFEFFLAKPPLPRHDWAADRELLAAIPWRHPCIDGWPGACVFNCHYEVIHLNQAEQEFLNAASGKATVAELLAQQPDFNLAEVRSLLARHLLLLGVKELEHHHHHH”, for which the protein production result is on record as “failed”.

For “MTSCTIIDATDRSIRQTLGETSTLARLIWVDAGLASPPLCSGLARCGRCRVRITEAAPAPHEDDREFFSAEDISAGWRLACRHAPAHGMVVHVPLEHHHHHH”, the protein production result is on record as “not failed”.

Regarding “MTSDGATSTSAAAAAAAAAAARRKPSWRERENNRRRERRRRAVAAKIYTGLRAQGDYNLPKHCDNNEVLKALCVEAGWVVEEDGTTYRKPLPGEIAGTSSRVTPYSSQNQSPLSSAFQSPIPSYQVSPSSSSFPSPSRGEPNNNMSSTFFPFLRNGGIPSSLPSLRISNSCPVTPPVSSPTSKNPKPLPNWESIAKQSMAIAKQSMASFNYPFYAVSAPASPTHRHQFHTPATIPECDESDSSTVDSGHWISFQKFAQQQPFSASMVPTSPTFNLVKPAPQQMSPNTAAFQEIGQSSEFKFENSQVKPWEGERIHDVGMEDLELTLGNGKARG”, the protein production result is listed as “failed”.

For “MTSKRKRWTAQAAKLPSPMGGLALAIASLGWTWESVMPSLNGWGQLTGAMIASALLLMLTGKFLLHPTVLKNELSHPVIGSVIPTFAMALMVVSNLLGHYFPHAGLALWLGAIAIHVVFLGAFIYYRAIDFKLEHMVPSWFVPPIGIIVAAVSFPSNGEPWLVNTILAFGMLAYLIMLPLMLYRLIFCQAIPDAAKPTIAILAAPASLSLAGYLTVCEQPSIAVVAILVSIAILMTSVIYLAFFHLLKLPFSPGYAAFTFPMVIGATALFKTAHWLEQFSQMAELTEWVRLLADFELGVATIVVAYVALRYLTHYVPNPVENIGSTTSVQLK”, the protein production result is on record as “failed”.

With “MTSLPQISTLMREKSVENKLKVKAKDDHMVPSGLYEVRAIQLPGGSWRHYYVDHSSKETYWILPYSHPDGASSHPLEKLPVYLPSYEECVDETNPLAVPEVCSPARD”, the protein production result was “not failed”.

As to “MTSPSHASDRGGGDGDSVENQSPELRKDPVTNRWVIFSPARAKRPTDFKSKSPQNPNPKPSSCPFCIGREQECAPELFRVPDHDPNWKLRVIENLYPALSRNLETQSTQPETGTSRTIVGFGFHDVVIESPVHSIQLSDIDPVGIGDILIAYKKRINQIAQHDSINYIQVFKNQGASAGASMSHSHSQMMALPVVPPTVSSRLDGTKDYFEETGKCCLCEAKSKHFVIDESSHFVSVAPFAATYPFEIWIIPKDHSSHFHHLDDVKAVDLGGLLKLMLQKIAKQLNDPPYNYMIHTSPLKVTESQLPYTHWFLQIVPQLSGVGGFEIGTGCYINPVFPEDVAKVMREVSLT”, the protein production entry is on record as “not failed”.
